Reference: patent US20180155451A1 (published 2018)
Read-outs that look alike come from different tables or passages of the source. Blank lines part the entries; values can stand above or below the binder they belong to.

Legend:
[1] = biological target: T1, FcgRIIIaV (human, UniProt P08637 17-208); test: SPR (Biacore); KD of H240-Kn120/H240-Hl068/L73-k0 divided by KD of the sample
T1 construct: extracellular domain; V158 allotype; also called FcγRIIIa V; not shown: C-terminal His tag
Method: (§1) The variants described above were assessed for their binding to FcgR according to the method described in Reference Example 8.
(§2) Analysis of interaction between obj ective antibody and the FcγR was carried out using Biacore T100 (GE Healthcare), Biacore T200, Biacore A100, and Biacore 4000. HBS-EP+ (GE Healthcare) was used as the running buffer, and the measurement temperature was set to 25° C. Chips produced by immobilizing the antigen peptide by the amine coupling method to a Series S sensor Chip CM5 (GE Healthcare), chips produced by allowing preliminarily biotinylated antigen peptides to interact with and immobilize onto a Series S Sensor Chip SA (certified) (GE Healthcare), chips produced by immobilizing Protein L (ACTIGEN, BioVision) to Series S Sencor Chip CM5 (GE Healthcare), or chips produced by immobilizing Protein A/G (Thermo Scientific) to Series S Sencor Chip CM5 (GE Healthcare) were used. Antibodies of interest were captured onto these chips, and allowed to interact to each FcγR diluted with running buffer. To regenerate and repeatedly use the chip, the antibodies captured onto the chip were washed off by reacting 10 mM glycine-HCl, pH 1.5.

[2] = biological target: T2, FcgRIIIaF (human, UniProt P08637 17-208); test: as above
T2 construct: extracellular domain; F158 allotype; also called FcγRIIIa F; not shown: C-terminal His tag
T2 sequence (P08637 17-208): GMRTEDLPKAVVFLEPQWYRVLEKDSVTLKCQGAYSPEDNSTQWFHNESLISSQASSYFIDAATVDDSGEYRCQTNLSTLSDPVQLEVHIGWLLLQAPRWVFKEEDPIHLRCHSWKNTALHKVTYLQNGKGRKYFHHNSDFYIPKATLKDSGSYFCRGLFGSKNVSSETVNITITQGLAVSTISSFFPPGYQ
Method: as §1, §2

[3] = biological target: T3, FcgRIIb (human, UniProt P31994 43-217); test: as above
T3 construct: extracellular domain; also called FcγRIIb; CD32B; not shown: C-terminal His tag
T3 sequence (looked up): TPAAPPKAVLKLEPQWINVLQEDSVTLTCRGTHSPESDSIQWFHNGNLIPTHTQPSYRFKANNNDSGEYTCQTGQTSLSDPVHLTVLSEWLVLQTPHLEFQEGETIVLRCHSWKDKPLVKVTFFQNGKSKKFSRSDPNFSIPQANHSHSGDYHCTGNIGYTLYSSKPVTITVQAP
Method: as §1, §2

[4] = biological target: T4, FcgRIIaH (human, UniProt P12318 34-217); test: as above
T4 construct: extracellular domain; H131 allotype; also called FcγRIIa H; FcgRIIa type H; not shown: C-terminal His tag
T4 sequence (looked up): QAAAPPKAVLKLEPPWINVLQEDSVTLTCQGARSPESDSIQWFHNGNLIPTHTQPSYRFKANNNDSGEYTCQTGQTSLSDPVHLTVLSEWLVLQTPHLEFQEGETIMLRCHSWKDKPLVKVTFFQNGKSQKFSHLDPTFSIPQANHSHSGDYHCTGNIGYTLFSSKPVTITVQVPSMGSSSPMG
Method: as §1, §2

[5] = biological target: T5, FcgRIIaR (human, UniProt P12318 34-217); test: as above
T5 construct: extracellular domain; R131 allotype; also called FcγRIIa R; FcgRIIa type R; not shown: C-terminal His tag
T5 sequence (looked up): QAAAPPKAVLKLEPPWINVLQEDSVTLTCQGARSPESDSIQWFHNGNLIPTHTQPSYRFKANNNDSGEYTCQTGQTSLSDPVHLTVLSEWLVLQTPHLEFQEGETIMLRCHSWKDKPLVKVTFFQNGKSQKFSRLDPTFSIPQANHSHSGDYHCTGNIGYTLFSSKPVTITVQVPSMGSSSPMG
Method: as §1, §2

[6] = biological target: T1, FcgRIIIaV; test: SPR (Biacore), antibody captured on chip, FcgR as analyte
Method: as §1, §2

[7] = biological target: T2, FcgRIIIaF; test: as above
Method: as §1, §2

[8] = biological target: T6, FcgRIa (human, UniProt P12314 16-292); test: as above
T6 construct: extracellular domain; also called FcγRIa; FcγRI; not shown: C-terminal His tag
T6 sequence (P12314 16-292): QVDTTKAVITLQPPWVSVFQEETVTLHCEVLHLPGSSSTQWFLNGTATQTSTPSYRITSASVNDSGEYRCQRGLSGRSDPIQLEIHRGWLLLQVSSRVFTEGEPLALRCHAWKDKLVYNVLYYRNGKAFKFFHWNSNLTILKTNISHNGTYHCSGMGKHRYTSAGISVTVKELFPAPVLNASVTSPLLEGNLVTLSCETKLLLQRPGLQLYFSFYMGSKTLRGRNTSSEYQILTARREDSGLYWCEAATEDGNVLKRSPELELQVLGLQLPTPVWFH
Method: as §1, §2

[9] = biological target: T3, FcgRIIb; test: as above
Method: as §1, §2

[10] = biological target: T4, FcgRIIaH; test: as above
Method: as §1, §2

[11] = biological target: T5, FcgRIIaR; test: as above
Method: as §1, §2

[12] = biological target: T1, FcgRIIIaV; test: SPR (Biacore); KD of H240-Kn120/H240-Hl068/L73-k0 divided by KD of the sample; remark: listed apart in the source
Method: (§3) The variants described above were assessed for their binding to FcγR according to the method described in Reference Example 8.
as §2

[13] = biological target: T2, FcgRIIIaF; test: as above; remark: listed apart in the source
Method: as §3, §2

[14] = biological target: T3, FcgRIIb; test: as above; remark: listed apart in the source
Method: as §3, §2

[15] = biological target: T4, FcgRIIaH; test: as above; remark: listed apart in the source
Method: as §3, §2

[16] = biological target: T5, FcgRIIaR; test: as above; remark: listed apart in the source
Method: as §3, §2

[17] = biological target: T1, FcgRIIIaV; test: SPR (Biacore), antibody captured on chip, FcgR as analyte; remark: listed apart in the source
Method: as §3, §2

[18] = biological target: T2, FcgRIIIaF; test: as above; remark: listed apart in the source
Method: as §3, §2

[19] = biological target: T6, FcgRIa; test: as above; remark: listed apart in the source
Method: as §3, §2

[20] = biological target: T3, FcgRIIb; test: as above; remark: listed apart in the source
Method: as §3, §2

[21] = biological target: T4, FcgRIIaH; test: as above; remark: listed apart in the source
Method: as §3, §2

[22] = biological target: T5, FcgRIIaR; test: as above; remark: listed apart in the source
Method: as §3, §2

T1 sequence (P08637 17-208 F176V limits assumed): as the sequence (P08637 17-208) above, with F160V counted along it

Relative KD [1]: 0 | Relative KD [2]: 0.1 | Relative KD [3]: 0.3 | Relative KD [4]: 0.8 | Relative KD [5]: 0.9 | Kd [6]: 14 nM | Kd [7]: 33 nM | Kd [8]: 1.4 nM | Kd [9]: 480 nM | Kd [10]: 53 nM | Kd [11]: 22 nM
B1: H240-Kn120/H240-Hl086/L73-k0 (antibody, human IgG1, kappa)
heavy 1: QDQLVQSGAEVKKPGASVKVSCKASGFNIKDTYIQWVRQAPGQGLEWMGRIDPLRKQTKYREKFEGRVTITADTSTNTAYMELSSLRSEDTAVYYCVRSGREFDYWGQGTLVTVSSASTKGPSVFPLAPSSKSTSGGTAALGCLVKDYFPEPVTVSWNSGALTSGVHTFPAVLQSSGLYSLSSVVTVPSSSLGTQTYICNVNHKPSNTKVDKKVEPKSCDKTHTCPPCPAPEYYWGPMVFLFPPKPKDTLMISRTPEVTCVVVDVSDEDPEVKFNWYVDGVEVHNAKTKPREEQYNATYRVVSVLTVLHQDWLNGKEYKCKVSNKDLPAPIEKTISKAKGQPREPQVCTLPPSRDELTKNQVSLWCLVKGFYPSDIAVEWESNGQPENNYKTTPPVLDSDGSFFLYSKLTVDKSRWQQGNVFSCSVMHEALHNHYTQKSLSLSP
heavy 2: QDQLVQSGAEVKKPGASVKVSCKASGFNIKDTYIQWVRQAPGQGLEWMGRIDPLRKQTKYREKFEGRVTITADTSTNTAYMELSSLRSEDTAVYYCVRSGREFDYWGQGTLVTVSSASTKGPSVFPLAPSSKSTSGGTAALGCLVKDYFPEPVTVSWNSGALTSGVHTFPAVLQSSGLYSLSSVVTVPSSSLGTQTYICNVNHKPSNTKVDKKVEPKSCDKTHTCPPCPAPELLIGPSVFLFPPKPKDTLMISRTPEVTCVVVDVSHEEPEVKFNWYVDGVEVHNAKTKPREEQYNSTYRVVSVLTVLHQDWLNGKEYKCKVSNDALPKPIEETISKAKGQPREPQVYTLPPSRCELTKNQVSLSCAVKGFYPSDIAVEWESNGQPENNYKTTPPVLDSDGSFFLVSKLTVDKSRWQQGNVFSCSVMHEALHNHYTQKSLSLSP
light: DIQMTQSPSSLSASVGDRVTITCRASQDIHKYIAWYQQKPGQAPRLLIQYTSTLQPGVPSRFSGSGSGTDYTFTISSLQPEDIATYYCLQYEQLRTFGGGTKVEIKRTVAAPSVFIFPPSDEQLKSGTASVVCLLNNFYPREAKVQWKVDNALQSGNSQESVTEQDSKDSTYSLSSTLTLSKADYEKHKVYACEVTHQGLSSPVTKSFNRGEC
notes: Heterodimerized anti-epiregulin antibody; G236I in the Hl068 chain; also called H240-Kn120/H240-HI086/L73-k0

Relative KD [12]: 0 | Relative KD [13]: 0.1 | Relative KD [14]: 0.4 | Relative KD [15]: 0.9 | Relative KD [16]: 1.1 | Kd [17]: 18 nM | Kd [18]: 39 nM | Kd [19]: 0.46 nM | Kd [20]: 400 nM | Kd [21]: 47 nM | Kd [22]: 18 nM
B2: H240-Kn179/H240-Hl089/L73-k0 (antibody, human IgG1, kappa)
heavy 1: QDQLVQSGAEVKKPGASVKVSCKASGFNIKDTYIQWVRQAPGQGLEWMGRIDPLRKQTKYREKFEGRVTITADTSTNTAYMELSSLRSEDTAVYYCVRSGREFDYWGQGTLVTVSSASTKGPSVFPLAPSSKSTSGGTAALGCLVKDYFPEPVTVSWNSGALTSGVHTFPAVLQSSGLYSLSSVVTVPSSSLGTQTYICNVNHKPSNTKVDKKVEPKSCDKTHTCPPCPAPEYYWGPMVFLFPPKPKDTLMISRTPEVTCVVVDVSDEDPEVKFNWYVDGVEVHNAKTKPREKQYNATYRVVSVLTVLHQDWLNGKEYKCKVSNKDLPAPIEKTISKAKGQPREPQVCTLPPSRDELTKNQVSLWCLVKGFYPSDIAVEWESNGQPENNYKTTPPVLDSDGSFFLYSKLTVDKSRWQQGNVFSCSVMHEALHNHYTQKSLSLSP
heavy 2: QDQLVQSGAEVKKPGASVKVSCKASGFNIKDTYIQWVRQAPGQGLEWMGRIDPLRKQTKYREKFEGRVTITADTSTNTAYMELSSLRSEDTAVYYCVRSGREFDYWGQGTLVTVSSASTKGPSVFPLAPSSKSTSGGTAALGCLVKDYFPEPVTVSWNSGALTSGVHTFPAVLQSSGLYSLSSVVTVPSSSLGTQTYICNVNHKPSNTKVDKKVEPKSCDKTHTCPPCPAPELLTGPSVFLFPPKPKDTLMISRTPEVTCVVVDVSHEEPEVKFNWYVDGVEVHNAKTKPREEQYNSTYRVVSVLTVLHQDWLNGKEYKCKVSNDALPKPIEETISKAKGQPREPQVYTLPPSRCELTKNQVSLSCAVKGFYPSDIAVEWESNGQPENNYKTTPPVLDSDGSFFLVSKLTVDKSRWQQGNVFSCSVMHEALHNHYTQKSLSLSP
light: DIQMTQSPSSLSASVGDRVTITCRASQDIHKYIAWYQQKPGQAPRLLIQYTSTLQPGVPSRFSGSGSGTDYTFTISSLQPEDIATYYCLQYEQLRTFGGGTKVEIKRTVAAPSVFIFPPSDEQLKSGTASVVCLLNNFYPREAKVQWKVDNALQSGNSQESVTEQDSKDSTYSLSSTLTLSKADYEKHKVYACEVTHQGLSSPVTKSFNRGEC
notes: Heterodimerized anti-epiregulin antibody; E294R in one chain, G236T in the other
